Measured values from paper PMC12964555, “Fecal Detection of Calprotectin Subunits Links Inflammatory Bowel Disease Activity With Chronicity of Intestinal Inflammation” (Gastroenterology, 2025).
One block for each binder: values may come before it.

Experiments:
Assay in all cases: SEC; human recombinant S100A8, S100A9 or their 1:1 mix (CP) run as reference proteins; sizes read from the elution
[1] = molecular target: T1, human recombinant S100A9 (human), P06702
T1 chain: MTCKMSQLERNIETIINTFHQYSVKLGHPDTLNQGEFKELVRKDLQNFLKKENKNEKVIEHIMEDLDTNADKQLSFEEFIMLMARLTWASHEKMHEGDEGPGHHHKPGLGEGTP

[2] = molecular target: the molecule itself
[3] = molecular target: T2, human recombinant S100A9 (human, UniProt P06702 1-114); conditions: both partners purified
T2 construct: S100A9, human, recombinant; Alone it runs as a homodimer by SEC; In the 1:1 mix with S100A8 it forms the calprotectin heterotetramer; also called S100A9 homodimers; source: human recombinant, generated by the authors, purity confirmed
T2 sequence (looked up): T1 chain

stoichiometry N [1]: 2
B1: human recombinant S100A9, P06702 1-114 (natural protein)
chain: T1 chain

binding result [3]: binds
B2: human recombinant S100A8 (natural protein, UniProt P05109 1-93, looked up)
chain: MLTELEKALNSIIDVYHKYSLIKGNFHAVYRDDLKKLLETECPQYIRKKGADVWFKELDINTDGAVNFQEFLILVIKMGVAAHKKSHEESHKE
notes: S100A8, human, recombinant; Alone it runs as a homodimer by SEC; In the 1:1 mix with S100A9 it forms the calprotectin heterotetramer; also called S100A8 homodimers; S100A8/S100A8 homodimers; source: human recombinant, generated by the authors, purity confirmed
stoichiometry N [2]: 2
